From IntAct's records for PubMed 16326715

B1: Cytochrome b-245 light chain (Homo sapiens), P13498 (parent)
chain: MGQIEWAMWANEQALASGLILITGGIVATAGRFTQWYFGAYSIVAGVFVCLLEYPRGKRKKGSTMERWGQKYMTAVVKLFGPFTRNYYVRAVLHLLLSVPAGFLLATILGTACLAIASGIYLLAAVRGEQWTPIEPKPRERPQIGGTIKQPPSNPPPRPPAEARKKPSEEEAAVAAGGPPGGPQVNPIPVTDEVV
B2: Neutrophil cytosol factor 1 (Homo sapiens), P14598 (parent)
chain: MGDTFIRHIALLGFEKRFVPSQHYVYMFLVKWQDLSEKVVYRRFTEIYEFHKTLKEMFPIEAGAINPENRIIPHLPAPKWFDGQRAAENRQGTLTEYCSTLMSLPTKISRCPHLLDFFKVRPDDLKLPTDNQTKKPETYLMPKDGKSTATDITGPIILQTYRAIANYEKTSGSEMALSTGDVVEVVEKSESGWWFCQMKAKRGWIPASFLEPLDSPDETEDPEPNYAGEPYVAIKAYTAVEGDEVSLLEGEAVEVIHKLLDGWWVIRKDDVTGYFPSMYLQKSGQDVSQAQRQIKRGAPPRRSSIRNAHSIHQRSRKRLSQDAYRRNSVRFLQQRRRQARPGPQSPGSPLEEERQTQRSKPQPAVPPRPSADLILNRCSESTKRKLASAV
partner: B1 chain

Variants of: B1
Conditions: with ncf1_human NCF1, P14598

effect of a mutation on the interaction	Variant
decreasing interaction	A163G;R164G

Variants of: B2
Conditions: with cy24a_human CYBA, P13498

effect of a mutation on the interaction	Variant
decreasing interaction	I164A
decreasing interaction	F209A
